Assay: soluble on expression in E. coli; label from the status in PepcDB or PDB records

Sequence | soluble on expression in E. coli
MEYDVYVRVSKEDVHLLNYLLEVEEHMFNIRKYEDGVLKIITPFPEEAIKLLEGCKEMVDLEILEVKENPGEA | soluble
MDQTYAEIENIYTLSPIIATTPKRYDVQYIQQKSRKNRNLIDHFDSRLPIEYRYPKKNSSATSSLSSAASRSLASKSLASSSSGYSSLGSTSSITTVFNGLSPFRSKSKNEEFDEQKAPSMRISEDVASIVIGENNSEVEEAVIDEVPEIKKRACCIECREKEIRQELDLESHQYANLQSLQKPQDPYVFLMTSMLTNLQKEDGGRQVVKVQQKIEKVLRLKPREPFNVEQKLVFDRQISTFASDVTIRLRAVSDAAPETYRDVSARFCEALHPGTPNSKGLKNIVKGVKNLLNF | not soluble
MAHHHHHHMCPYEERQELRISMGFAGRRPNLTFTSDTMDAHAYLVRHWALNAIAESAGKGMSVQRDSIPFLARSQHSIVNENKMTFLRPDGKIKYNIPKHWLLESDSSVNFLNASPGPVLPSEADNLLVCCTIYEERPEKCMRVYRVRTREDYIAVNQEILAAKCQLLEMNEVNGRNSMRISSRSTRASQQKERLGQTQRVLRTSMERKSINTAADSAGLPFSAFALSGLVSNAAFTIHKTDTSRQINIIHSFLRTEPTCKATIARSIVGNNVTLGPDVRITNSIILDNAEIGAGAIISNSVIGSSAMVNSGVRVVSCTVGPQCLVESNETDRVIRA | not soluble
MGSDKIHHHHHHMGFIEVQQQFMDYIRDPSLPLPEGIEPRRMKIYRELFFNNIAGFVSSAFPVLKSVYEDDQWQALVQQFFVSHDCKTPIFVEIAGEFLAFLQHEYQMTEDDPVFMLQLAHYEWLELCVAVAPDTPAAQSINTIELNLHRLCLAACAKVAQYAFDVQHISVDYQPIEPTAQANFFCVFRGADDEVAFLQLTPLSAQVLAYIEQMTHSQQGVTVDAIISWLSEHYPQMPNDTLLSGCLPLLQQLAQKGIVISSIES | not soluble
MGSDKIHHHHHHMGACENRWTVAKALRFPGDALQTILVAAPRGDLSTFFSIECTKRVHTGRCVTTANALKVQAFHTTDVTEQVRATPGWQQQYRQMSPGYFSGELRCLGLDGVEVYEERLNTRVEQFFRAPSGSLAFCFDRSENSLYLLNEQSRNIWITPENYQEVAVVFDQAFLARHGLDPQRLEGLFMVPLGSGQNALFGSWLSATLTRLGEEGCPLQGQALAEQLLEDCLFILDNASQRLQGVALGRRDEERAIMHRVSEWAADCPEETLNLLELADVAGVSLRQLQQAFKAFTGMPPAHWLRLRRLNGARRDLLRGGGVTVAEVAMRWSFWHLGRFSESYRQLFKEFPSETLKRCRV | not soluble
NLPDVQASKPSIAINLTRVGVTNMKKLVEIKRKDKRPIVLISTFDVFVDLPSDRKGANLSRNFEAVDEVLEKVLSTPVYEIEQLCSDIAHNLLGRHEYANQAEVRMKSEYMIRRASPSTGIKCQEVVNIFAEASAVRGNGDRDYFDVKKLIGAEVVGMTACPCAQEIMRDKAATELANLGVERDKIIKFLEKVPMATHNQRGRGIISIKVAHDFDVSLESIIKIIERSMSSSVYEVLKRSDEKVVVETAHMNPKFVEDCVRAMADNVVKEFPNLPDNAVITIKQTNEESI | not soluble
MITPVSSFSIDDLLRGHSNEIQRILKLDQTSPTPQSSSDEGSEKSSISVMSVPLTNELTPTITPALSDQLWLAAAAFPIEHSLLLAQRNGVFPGFWSTADQIRLSNATKAYRRLRLECSRRKARTVFSDQQLQGLERRFESQRYLSTPERIELANALNLSETQVKTWFQNRRMKHKKVVRKDDNSVDDDNGNDNESE | not soluble
MGSDKIHHHHHHMKLGTQNQAFFPENIEEKFAYVKEMGFEGFEIDGKLLVENLDEVKKAIEKTGLPVSTACGGYDGWIGDFIEERRLNGLEEIKAILEALAEVGGQGIVVPAAWGMFTYRLPPMVSPRSQAGDFKAVSESLVYLDKIAGETGTKVYLEPLNRYQDHMINLLSDAQKYIDENELKNVEIIADFYHMNIEEDSIPTVLETYKDSIGHIHVADNHRYQPGSGSLDFKTSFDQLKKNGYNGFLTFECRVRSENPEQAYKDALAHLKSCLI | not soluble
MGSGILFVFAIGAIPSQAQDIGSTDRLNVENWQEWETVGEAQLTWFVFDIYRSRLKAPNGQYLVSTDVSPHPFALEINYQRDISKQQLLEVTDEQWQKLGFPKSNRQQWITQLSFIFPSIKNGDELTYVTDGDKGQIIYRQAGTKTQKMVGEITDERMNDAFLSIWLSPKTEFPKLRKQLIGQVRP | not soluble
MSVEKTCRYLSLFLVASLTGCGFHLRGSETSDGAGQVLFLEKAGSTRVGSRLPDAIRLTGAQLTRNMVDAKGVIRILKETDERRTMSLNLGGRGNLFDLYTRVRYEVTTPQGEIIIPPQEVEVKREYFNNQLSPIGQGEEESLLRSEMERELAETLVRRVLIEMSRNPGGKSLEHHHHHH | soluble
MGSDKIHHHHHHMKYYFAPLEGITGYIYRNAYEKFFGGIDKYFTPFIVPTSSKSLTSRELKDVLPENNKVTFLVPQILTNDANKFIFTTEKLMNLGYSEVNLNLGCPSGTVVSKGRGAGFLKKRQELDEFLEKIFSKSPAKISIKTRIGKDSPDEFYELIKIFNKYPLEELIIHPRIQTDFYNNKPNMKVFKDALELSKSTVCYNGDIFQSNDYIKLIEEFSNLGVVMLGRGIISNPNIIKKINSNNVLEKEVLKKFHDAIYEEYQDILSGEKNVLFKMKEIWFYMIHLFKDSDKFAKKIRKANRLRDYEAIISALFGEFDLI | not soluble
SEEYDTNFYKKLFDAMFVNEDELKEMGKDPKEYMENLLKEAEEKSLKEKMELYKKYNVIEIDSLEDEYQSTAEGYGNLEDVKKFIQKYDINGVYDGYTLLYTYSGYRGETNIIEFLIENNADIYKKSINGKTPLYSAVDDYFYDAAEVILKHYKDNDDINDEFLLAVNNENEPMLRILLKKKFLFFGNKFKMNLDKGLEIALDKGNKDIAAELVLSGAKTDNFLYYFK | not soluble
MSLDTHSLRFSKEGTFQITVFSDLHFAEYENTAQGAKQDSRTAGVVRKVLQHEASTQLVVLNGDLISGYGTTSDNATRYLDQVLAPIQALGLPWAVTYGNHDNERFARSRELLDYESRTYPNYSLTRNMGPRDLEAGVSNYYLEVFAAETSHVPEMLLWFFDSRGGAQPHDWVHDSVVQWFIDTNANLTNKYNKAVPSIAFFHIPITATYDFQLYPGVDTSREPGINGEKVWWQGRGYDGKTGHDLKFMAALSATEGMLATFSGHDHDNDWCFKWKSPSATSSSAGLNVCYGRHTGYGGYGGLARGARQILLKQSTIKDEVATWIRLEDGLVPENVTLNATYGQDEEGHHHHHH | not soluble
MSSEAVAQATAATTSPEHGVPTSSATPTPPPSKGGGAGGGGGGEQQQVPFQMIPPGHFFANPFLNPYIPTAGAPAQEGEAQPQMVFSPAQYQEVMHHYFQQMMAASGAQFPIPFPMQFQPALQQPRPSSQASSSHRSEDDNGRQTAGSVVSSNVSPNHREVRPAEDSTETSGVVQNNDELLVPTSTSSDVTIGDVIEKSDSPENSQESAGGEEKSEEKRKLSGDRTDSLIRKQMSEMEKEITRRSQNKNIKTSGLSYTAPAPPSTEKSAPKESLNQLRSSFNLPDDSTTVGPVGPSTVPQQSQQFANNSMFMANAGNFVQNAFPIGVTMTPQATFGAAPGFQMMQPHQHNLFMQQPNPTFVNNGTNPFLQTQATLPNFVQNGTAPLVPTVSAQQFTPEQLAAAFAQQQIAQSAAPTPFDSPPPSMPSTSSGPSGALAPPPPPSHPIPRRVSGNGWPEENKENGTSTSTTNGAQSVPAAAGTDDPVWVLRDSYLKKMQREQRTSEEEEMSWQEAATAAQEAAENGGGDDQEEQETDRLLNGGTTGASTKGAERRGSVDKKKNSKETMVHEPAVLIEGVLFRARYLGSTQMLCESRGSKAARMAQAQEAVARVKAPEGDVQPSTEIDLFISTEKIMVLNTDLQRISDTDVRQDILMDHALRTISYIADIGDLVVLMARRMSTSHSDESCSDGDSSGGGVRKTPKVICHVFESDEASFIAQSIGQAFQVAYVEFLRANGIDDPSYLRQIDYQEVLNSQELLGDELEMFAKKETQKEVVVPKKAGEPLGIVVVESGWGSMLPTVVLAHMNPVGPAAHSNKLNIGDQIININGISLVGLPLSAAQTQIKNMKTATAVRMTVVSTPPVVEVRIRRPDTKYQLGFSVQNGVICSLLRGGIAERGGIRVGHRIIEINGTSVVAVAHDRIVNMLATAVGEIHMKTMPTSMFRLLTGQEQPQYI | not soluble
SEVDINGDSRSTLTTLPLPVAEGSSPGKAEAEKPRCSSTPCSPMRRTVSGYQILHMDSNYLVGFTTGEELLKLAQKCTGGEDSKGEAMPALRAKQLDTGLARSSRLYKTRSRYYQPYEIPAVNGRRRRRMPSSGDKCTKPLPYEPYKALHGPLPLCLLKGKRAHSKSLDYLNLDKMNIKEPADTEVLQYQLQHLTLRGDRVFARNNT | not soluble
MPEGPEVALTADILEKYFKGKTLEYIDFISGRYSKSEPEGYDDFIANLPLKVSNVDTKGKFLWFELFDPNDKSNKWYIWNTFGLTGMWSLFEAKYTRAVLSFDNELMAYFSDMRNFGTFKFSNSEKELKRKLNELGPDFLKNDDIDISKIKKYKQPIVALLMDQKKIGSGLGNYLVAEILYRAKIDPHKLGSNLTDQEIENLWYWIKYETKLAYDSNHIGYMVNLENESSKIGRKNYHPNIHPTEKEFDFLVYRKKKDPNGNKVIADKIIGSGKNKRTTYWAPAIQKLEHHHHHH | soluble
MEIKEVLPCIADPKKLRVIGRVDGNFPAVMPYLARLIPNASYNEKRGWISFKKGQRIITIHEDGFVAMTQIKDEDEAKSILGEIEQKAQEAWEKRNKIDLSKPLEKTVVSPFDVYNYLPKTNCKRCGEQTCMAFAVKLLNGEVDIKACKPLFEDKKYEGLRETLIGMLVAAGYDLEL | soluble
MGSDKIHHHHHHMSPLEMALLVHRGEFHLRELEPELPLEKFLKNADPKKTRKFLEKCGKEELERQKELIRKHNVKLVSFWEDDYPQHLREIRYPPAVLFVRGDAELLKEKCVGVVGTRRPTSYGVNVTKRFVKLLSEYFVIVSGMAFGIDSVAHKEALSSGGKTVAVLGTGVDVVYPRSNERLFHEIVKNGCVVSEYPMGTRARKHHFPARNRIIAGLSDAIIVTEAPIKSGALITVKFALESGRDVFAVPGDIDRKTSEGTNYLIKSGAYPLTDEEDLETHFGIRRIASPSLDDDKKKIYDLLRSSPKTVDELVEELGWSVSEVLRVISEMELMGMIWFDGGAYRLLG | not soluble
MIITDDHMHLYNHLKLKALEQFRDAGGTHVFLVNLLCHHYGIRPTSGKDFREVFERHLSLVEKANKIVKAYAVLGVHPAEITVIGDRIGHEKAAEMMKEALEIAGKYVEEGKAVALKSGRPHYPVSRHVWQLSNDVLRHAFEVAKDVGCAIQLHTESYTKEGMLEIAKMADEVGLKREKVVKHFSPPLIKEFEEIGIFPSVLAGNNNVLKAAEQGNRFTVETDYIDDRKRPGAVLGPKTVPRKVKELIELGYEDIAYKICVENVEKVYGV | not soluble
AIAAEMKTYSHRTMPSACTLVMCSSVESGLPGRDGRDGREGPRGEKGDPGLPGAAGQAGMPGQAGPVGPKGDNGSVGEPGPKGDTGPS | soluble
MQFPSSYWIESTQLPTFPPLSENIKTKVAVIGAGITGITTAYLLAKEGIDVVLIDSGLILNGTTGHTTAKITAQHDLIYDELINHFGMEKAGLYYESNNHALQFINETVQTYKIDCNFSNEDSYLYTTTDKGLRNLSKEYEAYQKLNIPCDYVQSLSIPIPVQSALVMKNQAQFHPLLYLKTLLAKFVEMGGKVYEQTTAMDVEKGDSPQIITKEGHRITCEYVVSCSHFPLEHHHHHH | not soluble
